Reference: patent US20240026407A1, “MODIFICATION OF SAPONINS” (GLAXOSMITHKLINE BIOLOGICALS SA, priority 2020, published 2024)

B1: 1047 (protein, listed as Brachybacterium faecium)
chain: MSSHTAQHVLDALTHPDPAARPMMRWWWFGPDMDRAEIDRELRAMAAAGLGGAEIALVYPLRPGAPDYLGDEALGHVRHAAERARELGLRLDVTLGSGWSYGGPHIGPEQAARRLRWERRDLGPQPLSWPLTPSWPGDELVSVHLGEGLPPSGWTRLDPVGERLEIPAGRGPRTVLLAWSEVTGQQVKRSAAGAEGPVVDHLSATAVRHHLDVVGGALLSAVPAHLLGSVFSDSLEVYDAGWTAALPEQFRQRRGYDLLPVLHLLEVDAPGAEQVREDYGLTLSELVEEGFVGTCRAWAEEHGVRFRLQGYGQPPITLSAQRGAHLIEGEGAGWTALTQSRWASSAAHLDRREVVSSEVWTWVRSPAFRAAPLDLLGEAHEHLLLGITHFVGHGWPYTAPDAPGLGWTFYAAGALDDRNAWWPAMPELTAHLTRLCAALRLGAPGAEVALYLPYADVRAARGRGHDLWAACRAHIGEQLPAAIRRAGYDLDLLDDDALAALDPAAYPVVVLPRVSRLPAETRRWLDRVRAAGGSVLAVDSPAYPAGQQLSLPEEDGDDARLRDHATLAMVGARGGSDAEGEEGADGEGADGEAAGGKNPLAAALRGAHTPPLLLSGDGGEVGTVHRRLADGDLHLLAHTGPRRREVEVTPRDPRRALALHDPAEPGLRPLPSTGARLVLHPYQAVLLLATDQPLPAPDGAAPATDAAHGPAQTGTAEPEPIALDGPWTASRPGEAPRAVTLPHLLTGQDAADLRPLLLETTVTLDEDTARGPLVLDLGPGRAVPHTGEGSGYRALLEPPVREIAVLEVDGEELGVLWRPPYRIALTGRLRAGTSRLRLRIHGTTAAAAALPENAEAAAGQVAAAHETYGERFQPQELERMLDGVATGLASVPVLRRAGG
B2: 1019 (protein)
chain: MNKKQLILLCMLAAGGSIQAQQWPDAPAEARPGTRWWWLGSAVDEKNLTYNLEEYARAGMGAVEITPIYGVQGNDANDIQFLSPRWMEVLKHTQAEGKRTGIEIDMNTGTGWPFGGPEVSIEDAASKAIFQTYDIEGGQEIVQDINVTDKKQQPYSVLSRVMAYDENGRCINLTSHVRKDKLVWKAPAGKWKVIALYNSKTRQKVKRAAPGGEGYVMNHLSKTAVKNYLSRFNRAFKSSKTSYPHTFFNDSYEVYQADWTEDFLDQFARRRGYKLEEHFPEFLDENRPEISRRIVSDYRETISDLLLENFTRQWTDWAHKNGSITRNQAHGSPANLIDVYAAVDIPECEGFGLSQFHIKGLRQDSLTKKNDSDLSMLKYASSAAHIAGKPYTSTETFTWLTEHFRTSLSQCKPDMDLMFVSGINHMFFHGTPYSPKEAEWPGWLFYASINMNPTNSIWHDAPSFFDYITRCQSFLQMGKPDNDFLIYLPVYDMWDEQPGRLLLFSIHHMAKLAPKFIDAIHRINNSGYDGDYISDNFIRSTRFKDGQLITSGGTGYKALVVPAAHLMPNDVLAHLLKLAQQGATIVFLENYPTDVPGYGQLEQKRKTYQQTLQKLPSVSFSETTVTPVGKGKIITGTDYARTLASCNIPQEEMKTKFGLQAIRRVNDSGHHYFISSLQDKGVNDWVTLGTKAKAAALFNPMTGECGEAKVRQAGEQTQVYLQLKSGESVILQTYQQPLQAARPWKYIQEQPFSLSLDHGWKLHFAESEPKIKGTFDIDRPCSWTGIDHPAAKINMGSGVYSLDIELPALQADDWVLDLGDVRESARVRINGQEAGCAWAVPYQLRVGHLLKSGKNHIEIEVTNLPANRISELDRQGVQWRKFKEINIVDLNYRPANYGHWAPMPSGLNSEVRLIPVDYLSFKTH
modifications: Bacteroides thetaiotaomicron
B3: 1064 (protein, listed as Lachnospiraceae bacterium)
chain: MEIYNLKINGMVNPIGFEYKEIICSWKVRKTEDKQQKKARISISADQEFHEIVFQIEGEELDSTGTLADFKIKPYTTYYWKVYVEGENGEYGTSETAFFETAKMCHKWKADWIGTDKEDTFHPVFQKKFYLRDGIKKARLYCCGLGVYEGYINGKKAGNDYLAPFINDYKDNLQYQTYDITDLLFQQKENKIEFLLGKGWYIGKFGLDGCEKIFGDEMMLIAEIRVEYFDGRIEVICTDDNWKYKGSDIEDSGIYFGEKINRQLWDDRQNLWKQAVKKKQKTPLKERYSLPLTVKEDIVPVKIIHTPIGETVLDVGQNMVGYMEFFADFPKGTRIKIECGEILQHGNFCHDNYTIAESTFEYISDGRKETVRPHFTYMGFRYLRVTGWPNEIKLGDIKCRVIYSDLQRTGFCKTQNSMLNQLYENCIWSQKSNFVDMPTDCPQRGERLGWTGDAQVFAATACYNMDTRAFYRKYLRDIRSHQLRKNGAIPNFIPDLGTFSEACSIWGDAATILPYQIYQSYGCAEEIRSYYTTMKDWVEYMVSMDESQGRHYKFQPGFQFGDWLALDGITEQSLKGSTDDNYIGCCYYYHSVKITSEIAQVLGYTEDAQRYQELSGKIRKAILNEYFTPKGRLSVDTQTAYIIALKFGLYNNKNVLIQQFKERLTRDCYKIKCGFAGTPLLCSVLGENGMEDIAYRILLNKDYPGWLYCVNLGATTVWERWNSVLSDGMLSGTGMNSLNHYAYGSVVQYFYEYIAGIRPKRPGFKEAFIEPKPDIRIQGVMCSYDSAMGVYKSEWKIQENGLICIHIEIPFNCTADVLLPEYSSNGLTYSDNVNGEMISENGKLQLCSGKYDFAYFPKNDYRHVYKPESILGDLREDKEALEILEKNIPVLYEIIQSNDIENMLITLQEFDTLHFMGIDPEIADETRKKIYNLNYYGK
B4: 1057 (protein, listed as Parabacteroides goldsteinii)
chain: MKVDITKIFTILFVIAFAGCLLQSCNSSINGLEQGFFNPPDSVRPGVYWYFMDGNLSKEAMTKDLESMKEAGIGHVVYLEVNVGVPRGSVDFLSDEWQEMFAHAVAECERLGIDITLGVGPGWTGSGGPWVEGAQSMMHLVSSSVNVSGKGKKTIALPKPSPKPHFFAEDNFTPESKKRWEEYYEDVAVLAFPAGASTFGTDYEAGSAYLRITGIEEKALYYRKPYSSVTQVKPYLTFGKDSFTVQTVDKDCIIDLTDHLEIDGTLTWEVPEGDWTIMRFGARNNGAVTRPAPHPGVGLETNKFDTTALNAHLDKFVTKLFNRVGFKKAQPQGGLQMLHMDSWEMGAQNWTTHFREEFTKRRGYDPQPFYPVYAGFIVQSREESERFLWDLRVTSQELIKEYHAGHIKSYGKRYGLGLSIEPYDMNPTADLELASVADMPMCEFWSVGYGYNTSFSAMEGTSVAHLLGQPVVPAESFTAYLDGWRQHPGSMKNQTDWALASGINRLMFHTFQHQPLNDRLRPGMTMGPYGVHWDRNQTWWPMADAYHRYISRCQLLLQQGRTVADILYLTPEGAPHVFRAPISALEGDLLDTDNLFNFRNETPLPDRKGYNFDACPPSLFYDAQVKDGKVVFPSGVSYRLLVLPCFETMTPELLEKIRDLVNGGATVVGLPPQKSPSLVNYPVCDEKVRVLVQELWGGYEIPETVEIRSIGKGKVIWSKELLEQQDNLYPTYEYTADILAKMDVHEDFESTGEIRYTHRTMKGYEIYFVSNRKDSPVTVNCKFRMTGHPELWNPMTGEIRPLAEYTVTGVHTTIPLLFDANEGYFIVFRDNTFQREIQTKKNFPDSRRVASLTAPWSVSFDPAWGGPEQVTFEKLTDWTQHPDSGIRYYSGTAIYRQTFDRPADNSKQQFLDLGKVKNLARVRLNGQDLGVVWTAPWRVEITKALKLKDNQLEIEVVNLWPNRLIGDEQLPDDGIRNGEWPEWLKDGGPRTSGRYTFTTYKHFTKESPLLESGLLGPVTIWGIDN

Assay: Experiment 6-1: screening of rhamnosidases for derhamnosylation of saponins in treated bark extract (2%), QS-17 2296 to QS-18 2150 (PAR %)
Type: biochemical, Quillaja saponaria
Details: TBE 2%, pH 7.5, 30 degC, 18 h; TIC peak area ratio percent of rhamnosylated starting saponin to derhamnosylated product, LCMS/MS; negative controls 4.876, 5.225

Going from B1 to B2, the “QS-17 (PAR %)” value falls from 4.669% to 4.626%.

First: B3
Second: B4
The “QS-17 (PAR %)” value of the first is lower: 4.625% for the first, 4.670% for the second.

Assay: Experiment 6-1: screening of rhamnosidases for derhamnosylation of saponins in treated bark extract (2%), desglucosyl-QS-17 2134 to QS-21 1988 (PAR %)
Type: biochemical, Quillaja saponaria
Details: TBE 2%, pH 7.5, 30 degC, 18 h; TIC peak area ratio percent, LCMS/MS; negative controls 2.719, 2.158

Compared with B1, B2 is higher in “Peak75 (PAR %)” value: 2.456% for the first, 2.982% for the second.

Compared with B3, B4 is higher in “Peak75 (PAR %)” value: 2.476% for the first, 2.498% for the second.

Assay: Experiment 6-1: specificity of rhamnosidases towards other rhamnose residues (C3 saccharide rhamnose, C28 saccharide rhamnose)
Type: biochemical, Quillaja saponaria
Details: TBE 2%, pH 7.5, 30 degC, 18 h; LCMS/MS; negative controls 0.18, 0.17

Going from B1 to B2, the “ratio PP/QS-21” value falls from 0.17 to 0.15.

Compared with B3, B4 is lower in “ratio PP/QS-21” value: 0.18 for the first, 0.15 for the second.

Assay: Experiment 6-1: screening of rhamnosidases for derhamnosylation of saponins in treated bark extract (2%), QS-17 2310 to QS-18 2164 (PAR %)
Type: biochemical, Quillaja saponaria
Details: TBE 2%, pH 7.5, 30 degC, 18 h; TIC peak area ratio percent, LCMS/MS; negative controls 3.061, 2.429

Going from B1 to B2, the “Peak57 (PAR %)” value falls from 3.332% to 2.390%.

First: B3
Second: B4
The “Peak57 (PAR %)” value of the first is lower: 3.009% for the first, 3.213% for the second.
